Measurements reported in publication PMC4847777.

Target: T1, RamA (His6-RamA) (Corynebacterium glutamicum (ATCC 13032?)) (UniProt Q8NML3)
T1 sequence: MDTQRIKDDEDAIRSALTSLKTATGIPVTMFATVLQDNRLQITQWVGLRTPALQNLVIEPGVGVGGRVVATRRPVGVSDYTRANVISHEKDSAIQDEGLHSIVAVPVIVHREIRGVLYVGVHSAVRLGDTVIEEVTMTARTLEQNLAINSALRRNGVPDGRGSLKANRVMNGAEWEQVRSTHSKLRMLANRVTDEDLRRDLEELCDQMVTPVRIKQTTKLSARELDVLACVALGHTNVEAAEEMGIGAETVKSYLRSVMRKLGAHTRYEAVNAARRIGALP
Experiment: EMSA
Conditions: 10 mM Tris, 1 mM dithioerythritol, 1 mM EDTA, 1 ug poly[d(I-C)], 10% glycerol, 20 ul, about 70 ng DNA, 20 min at room temperature, pH not stated; 2% agarose in …

Sequence: TGAAGTATTGGGATCACGCCACGCAAGATCGCGGGCATTTGCTCTAAACCACACGAGCAGGGCTGTTTGAAAAGCTGTAAATGACATGACCTAAATGATTGTACTGACTGGCACTTTAGGTCATATGTCACACCGAGTGGAATAATAAAGCTTATGCCTTTGCGTAATGTTGAGGTACCCCG (double strand) [PF3]
- binding: no binding
